Patent US20100120068A1 (PHARMACOME, published 2010)

Target: T1, human α1A-adrenergic receptor (human, UniProt P35348 1-466)
T1 construct: Expressed in CHO-K1 cells either alone (α1A cells) or together with CRELD1α (α1L cells); also called ADRA1A; α1A-subtype
T1 sequence: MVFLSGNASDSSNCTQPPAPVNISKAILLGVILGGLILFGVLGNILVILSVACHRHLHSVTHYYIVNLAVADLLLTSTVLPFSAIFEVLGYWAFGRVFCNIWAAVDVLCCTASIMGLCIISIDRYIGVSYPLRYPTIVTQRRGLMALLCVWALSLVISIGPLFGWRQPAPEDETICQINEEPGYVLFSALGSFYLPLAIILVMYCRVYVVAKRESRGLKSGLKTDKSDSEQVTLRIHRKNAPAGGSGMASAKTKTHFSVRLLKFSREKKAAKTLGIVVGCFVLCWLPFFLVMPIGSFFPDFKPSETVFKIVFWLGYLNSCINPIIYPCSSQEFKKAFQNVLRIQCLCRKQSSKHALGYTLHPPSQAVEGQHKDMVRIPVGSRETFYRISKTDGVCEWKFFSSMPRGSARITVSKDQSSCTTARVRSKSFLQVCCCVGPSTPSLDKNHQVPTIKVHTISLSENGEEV
Experiment: method not described; told in the description only

B1: CRELD (cysteine-rich with EGF-like domains) 1α protein (other)
chain: QPSPPPQSSPPPQPHPCHTCRGLVDSFNKGLERTIRDNFGGGNTAWEEENLSKYKDSETRLVEVLEGVCSKSDFECHRLLELSEELVESWWFHKQQEAPDLFQWLCSDSLKLCCPAGTFGPSCLPCPGGTERPCGGYGQCEGEGTRGGSGHCDCQAGYGGEACGQCGLGYFEAERNASHLVCSACFGPCARCSGPEESNCLQCKKGWALHHLKCVDIDECGTEGANCGADQFCVNTEGSYECRDCAKACLGCMGAGPGRCKKCSPGYQQVGSKCLDVDECETEVCPGENKQCENTEGGYRCICAEGYKQMEGICVKEQIPESAGFFSEMTEDELVVLQQMFFGIIICALATLAAKGDLVFTAIFIGAVAAMTGYWLSERSDRVLEGFIKGR
notes: The whole coding region was used; No signal peptide limits are stated; also called CRELD1α; CREDL1α
  binding result: binds
